Results taken from US20210047410A1 (ONCOLMMUNE, published 2021).
Substitutions are numbered along the chain they refer to. Each block holds one molecule with its values, some of them ahead of it.

Tests used:
[1] = target: T1, Recombinant mouse Ctla-4Fc protein (mouse, UniProt P09793 36-162, limits assumed); test: competition ELISA: B7-1 coated (blocked ligand), biotinylated mouse Ctla-4-Fc, antibody varied, avidin-HRP
T1 construct: Bought; also called biotinylated mouse Ctla-4-Fc; not shown: Fc part; not described

[2] = target: T1, Recombinant mouse Ctla-4Fc protein; test: competition ELISA: B7-2 coated (blocked ligand), biotinylated mouse Ctla-4-Fc, antibody varied, avidin-HRP
[3] = target: OFP-tagged human CTLA-4 on CHO cells (human) (UniProt P16410)
[4] = target: human CTLA-4 on or in cells (T cells of Ctla4 h/h knock-in mice; CHO stable lines and 293T cells expressing hCTLA-4) (human) (UniProt P16410); test: cell-based or functional assay
[5] = target: human CTLA-4-Fc (human) (UniProt P16410); test: competition ELISA; hB7-2-Fc coated, biotinylated CTLA-4-Fc at […]
[6] = target: human CTLA-4-Fc (human) (UniProt P16410); test: competition ELISA; hB7-1-Fc coated at 0.5 µg/ml, biotinylated CTLA-4-Fc at […]
[7] = target: human CTLA-4-Fc (human) (UniProt P16410); test: BLI (Octet Red96); antibody on anti-hIgG-Fc biosensor, antigen in solution from 600 nM
[8] = target: human CTLA-4-Fc (human) (UniProt P16410); test: ELISA: antibody coated at varying doses, biotinylated CTLA-4-Fc at […], streptavidin-HRP
[9] = target: human CTLA-4-Fc (human) (UniProt P16410); test: competition ELISA: B7-2-Fc immobilized (blocked ligand), biotinylated CTLA-4-Fc at […], antibody varied
[10] = target: human CTLA-4-Fc (human) (UniProt P16410); test: competition ELISA: hCTLA-4-Fc coated at 1 µg/ml, blocked ligand biotinylated hB7-1-Fc at […], antibody varied
[11] = target: human CTLA-4-Fc (human) (UniProt P16410); test: flow cytometry, competition: 200 ng hCTLA-4-Fc on CHO cells expressing mouse B7-1 (blocked ligand), antibody varied
[12] = target: human CTLA-4-Fc (human) (UniProt P16410); test: competition ELISA: hCTLA-4-Ig immobilized at […], blocked ligand biotinylated hB7-1-Fc at […], antibody varied, avidin-HRP
[13] = target: human CTLA-4-Fc (human) (UniProt P16410); test: flow cytometry, competition: biotinylated CTLA-4-Fc on CHO cells expressing hB7-1 (blocked ligand), antibody varied, PE-streptavidin
[14] = target: human CTLA-4-Fc (human) (UniProt P16410); test: flow cytometry, competition: biotinylated CTLA-4-Fc on CHO cells expressing mB7-2 (blocked ligand), antibody varied, PE-streptavidin
[15] = target: human CTLA-4-Fc (human) (UniProt P16410); test: flow cytometry, competition: biotinylated CTLA-4-Fc 200 ng/test on hB7-1-positive, FcR-negative L929 cells (blocked ligand), antibody varied, PE-streptavidin
[16] = target: polyhistidine tagged human CTLA-4 (human) (UniProt P16410); test: flow cytometry, competition: 200 ng biotinylated polyhistidine-tagged CTLA-4 on CHO cells expressing human B7-1 (blocked ligand), antibody varied, PE-streptavidin
[17] = target: T1, Recombinant mouse Ctla-4Fc protein; test: ELISA: plate bound mouse Ctla-4-Fc, antibody varied
[18] = target: mouse Ctla-4 in cells (spleen CD3+CD4+ cells of Ctla4 m/m mice) (mouse) (UniProt P09793); test: cell-based or functional assay
[19] = target: T1, Recombinant mouse Ctla-4Fc protein; test: competition ELISA: mB7-2 coated (blocked ligand), biotinylated mouse Ctla-4-Fc, antibody varied
[20] = target: T1, Recombinant mouse Ctla-4Fc protein; test: ELISA, binding to soluble mouse Ctla-4-Fc; neither sheet nor legend says which component's concentration is on the axis
[21] = target: human CTLA-4-Fc (human) (UniProt P16410); test: BLI (Octet Red96)
[22] = target: polyhistidine tagged human CTLA-4 (human) (UniProt P16410); test: ELISA; His-hCTLA-4 coated at 0.5 µg/ml, varying antibody doses

Chain of polyhistidine tagged human CTLA-4 (human) (P16410 36-162 limits assumed): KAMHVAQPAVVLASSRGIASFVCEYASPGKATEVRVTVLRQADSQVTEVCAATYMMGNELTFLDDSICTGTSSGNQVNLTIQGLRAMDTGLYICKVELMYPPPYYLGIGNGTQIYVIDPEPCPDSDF
Chain of OFP-tagged human CTLA-4 on CHO cells (human) (P16410 36-223): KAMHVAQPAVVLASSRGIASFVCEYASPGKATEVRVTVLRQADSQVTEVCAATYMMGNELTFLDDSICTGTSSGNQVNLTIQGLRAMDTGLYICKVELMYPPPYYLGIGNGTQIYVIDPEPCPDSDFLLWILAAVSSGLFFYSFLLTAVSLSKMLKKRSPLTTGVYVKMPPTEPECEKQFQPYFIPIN
Chain of human CTLA-4-Fc (human) (P16410 37-161 limits assumed): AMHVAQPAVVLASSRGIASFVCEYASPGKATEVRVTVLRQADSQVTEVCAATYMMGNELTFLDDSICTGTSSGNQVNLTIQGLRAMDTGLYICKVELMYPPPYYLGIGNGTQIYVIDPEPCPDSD
Chain of human CTLA-4 on or in cells (T cells of Ctla4 h/h knock-in mice; CHO stable lines and 293T cells expressing hCTLA-4) (human) (P16410 36-223): as the sequence (P16410 36-223) above

IC50 (read off the curve) [1]: 1 µg/mL | IC50 (read off the curve) [2]: 0.3 µg/mL
Molecule: hamster anti-mouse Ctla-4 mAb 4F10 (antibody)

% GFP+OFP+ cells (upper right quadrant), Mix-0 h [3]: 0.19% | % GFP+OFP+ cells (upper right quadrant), Mix-1 h [3]: 0.3% | % GFP+OFP+ cells (upper right quadrant), Mix-4 h [3]: 0.49%
Molecule: B7-H2-GFP on transfected P815 cells (ligand)

level of hB7-2 on DC of human CD34+ reconstituted NSG mice [4]: 2.5 fold | IC50 [5]: 0.1 µg/mL | IC50 [6]: 3 µg/mL | lowest concentration with significant blocking [6]: 0.2 µg/mL | Kd [7]: 2.3 nM | EC50 (read off the curve) [8]: 1 µg/mL | IC50 (read off the curve) [9]: 0.1 µg/mL | IC50 (read off the curve) [10]: 0.2 µg/mL | IC50 (read off the curve) [11]: 1 µg/mL | IC50 (read off the curve) [12]: 0.4 µg/mL | IC50 (read off the curve) [13]: 8 µg/mL | IC50 (read off the curve) [14]: 0.9 µg/mL | IC50 (read off the curve) [15]: 1 µg/mL | IC50 (read off the curve) [16]: 2 µg/mL
Molecule: L3D10 chimera antibody (human IgG1 Fc and the variable regions of mouse anti-human CTLA-4 mAb L3D10)

EC50 (read off the curve) [17]: 1 µg/mL
B1: anti-mouse Ctla-4 mAb 9H10 (antibody, from another filing)
scFv: YPYDVPDYAGAQPARSDIVMTQSPSSLAVSVGEKVTISCKSSQSLLYGSSHYLAWYQQKVGQSPKLLIYWASTRHTGIPDRFIGSGSGTDFTLSLSSVQAEDMADYFCQQYFSTPWTFGAGTRVEIKSGSGGGSGGGSGGGSQVQLLQSESELVKPGASVKLSCKTSGYTFTDYYIHWVKQKPGQGLEWIGLINPNNDGTNYNQKFQGKATLTADKSSSTAYMELNSLTFDDSVIYFCARASSRLRMARTTSDYYAMDYWGQGIQVTVSSVDSSGSGGCKPCICTVPEVSSVFIFPPKPKDVLTITLTPKVTCVVVDISKDDPEVQFSWFVDDVEVHTAQTQPREEQFNSTFRSVSELPIMHQDWLNGKEFKCRVNSAAFPAPIEKTISKTKGRPKAPQVYTIPPPKEQMAKDKVSLTCMITDFFPEDITVEWQWNGQPAENYKNTQPIMDTDGSYFVYSKLNVQKSNWEAGNTFTCSVLHEGLHNHHTEKSLSHSPGK

level of mB7-1 on DC of WT mice [18]: 15% | IC50 (read off the curve) [19]: ~2 µg/mL | EC50 (read off the curve) [20]: ~0.4 µg/mL
B2: anti-mouse Ctla-4 mAb 9D9 (antibody, V domains shown)
VH: EAKLQESGPVLVKPGASVKMSCKASGYTFTDYYMNWVKQSHGKSLEWIGVINPYNGDTSYNQKFKGKATLTVDKSSSTAYMELNSLTSEDSAVYYCARYYGSWFAYWGQGTLITVST
VL: DIVMTQTTLSLPVSLGDQASISCRSSQSIVHSNGNTYLEWYLQKPGQSPKLLIYKVSNRFSGVPDRFSGSGSGTDFTLKISRVEAEDLGVYYCFQGSHVPYTFGGGTKLEIK

fold increase in off-rate against L3D10 [21]: 4 fold | fold reduction of binding at pH 4.5 against pH 7.0 (by increase of IC50) [22]: > 100 fold | fold reduction of binding at pH 5.5 against pH 7.0 (by increase of IC50) [22]: > 10 fold | Kd [7]: 7.2 nM | koff [7]: 0.0016 s⁻¹ | kon [7]: 230000 M⁻¹ s⁻¹
B3: HL12 (humanized L3D10 clone) (antibody, from another filing, V domains shown)
VH: QVQLQESGPGLVKPSETLSLTCTVSGFSLTSYGLSWIRQPPGKGLEWIGYIWYDGNTNFHPSLKSRVTISKDTSKNQFSLKLSSVTAADTAVYYCAKTEGHYYGSNYGYYALDYWGQGTSVTVSS
VL: DIQMTQSPSSLSASVGDRVTITCRASENIYSNLAWYQQKQGKAPKLLLYAATNLQDGVPSRFSGSGSGTDYTLTISSLQPEDFATYFCQHLWGTPYTFGQGTKLEIK

fold increase in off-rate against L3D10 [21]: 4 fold | fold reduction of binding at pH 4.5 against pH 7.0 (by increase of IC50) [22]: > 100 fold | fold reduction of binding at pH 5.5 against pH 7.0 (by increase of IC50) [22]: > 10 fold | Kd [7]: 7.1 nM | koff [7]: 0.0019 s⁻¹ | kon [7]: 270000 M⁻¹ s⁻¹
B4: HL32 (humanized L3D10 clone) (antibody, from another filing, V domains shown)
VH: B3 VH with P61S, S62P, K71V, S120L
VL: B3 VL
